Assay results published in the supplement of paper PMC12764529.
± gives the half width of the 95% confidence interval.

Tests used:
[1] = folding stability dG unfold from trypsin proteolysis; higher = more stable
How it was run: (§1)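 Mini-proteins designed to be under 80 residues and free of cysteine were carried in a PA-tagged cDNA display construct and digested with trypsin and with chymotrypsin. Each protease was applied at 11 threefold-diluted concentrations, alongside a no-protease condition, before sequencing. K50 came from Bayesian fitting of the sequencing counts, and unfolding free energy was obtained by comparing it with a sequence-predicted unfolded-state K50 and a shared folded-state K50, for each protease separately or for both together. Designs were retained only if their AlphaFold2 dimer inter-PAE exceeded 15.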

[2] = folding stability dG unfold from chymotrypsin proteolysis; higher = more stable
How it was run: as §1

[3] = folding stability dG unfold (combined trypsin and chymotrypsin); higher = more stable
How it was run: as §1

Sequence	folding stability dG unfold [1] [kcal/mol]	folding stability dG unfold [2] [kcal/mol]	folding stability dG unfold [3] [kcal/mol]
SAGGSAGGSAGGPKVIEITNKDGSTFRLVEVDGELYLYNEKTGKVVKLPPGAKITIKKPSAGGSAGGSAGGS [r10_637_TrROS_Hall]	1.39 ± 0.033	2.65 ± 0.031	2.34 ± 0.059
EEIIEKLKEEGYEIVSVSIKEVNGKKKIFIAVRRKDKPEYLLVEIDLENKEVKIKKVKKFPKGESIEDILSS [r1_383_TrROS_Hall]	2.95 ± 0.2	3.98 ± 0.23	3.56 ± 0.27
SAGGRIRIEYDPENGTITIYVPTPDGEITPDQVEEIAKLLMELWPNIEVEIEPHPNGMVRITIKIPPKSAGG [r13_291_TrROS]	3 ± 0.19	3.81 ± 0.23	3.54 ± 0.19
SAGGSAGGSAKITIELDGITEVEFDEETGELYLRIEVDGKLYEIRITEDGTIEIREVPLEDSAGGSAGGSAG [r3_62_TrROS_Hall]	1.86 ± 0.097	3.63 ± 0.11	3.13 ± 0.17
SMSPEALKKANEFAEYIAEHFKNWNIEIDVEVEWDPDGEITIRAKIEMRPPPPPPPKPKRDPNGKWKWEGSA [r9_82_TrROS]	0.943 ± 0.079	2.3 ± 0.23	1.84 ± 0.51
SAGGSAGGMYKVTITVTDPATGKTVATETLTLESEEEAKEYVEAVKKELPSSLTVSATITKVPESAGGSAGG [r6_690_JUSTAS]	4.77 ± 0.46	4.41 ± 0.072	4.58 ± 0.12
SAGGSAGGSASMTVVVEREEITRRDPSSDELFEEEVVRATTTEKDGVIETTTLPEEEWEKLSSAGGSAGGSA [r18_406_JUSTAS]	0.348 ± 0.056	-0.521 ± 0.2	-0.0202 ± 0.32
SAGGKTVVIELDGARIEFNEDDGTITVWMPREELEALKAALPPGAEIVEVRERPDGWVQVTIRITPPSAGGS [r8_415_TrROS_Hall]	3.1 ± 0.14	4.21 ± 0.15	3.89 ± 0.1
SAGKVEIKEVSVDPNTDEVKVTFKNPNVPPGTKIVVYPKDGKPIEFETEPNKEVTLTLPKDVEKIEFEGSAG [r14_671_TrMRF]	-0.298 ± 0.13	0.381 ± 0.14	0.0919 ± 0.15
SAGGSAGGSAGLEVPPGVPVKIPVVYVDKENDYVIVTELTITPDSGEIFYDPKIIPKKELSAGGSAGGSAGG [r11_468_TrMRF]	0.251 ± 0.063	0.734 ± 0.07	0.65 ± 0.099
SAGGSAGGSAGGLEKLVELLAPGKPLEVLRIDPTPTYVRIVVRHPDYPVDTVILADPDVISAGGSAGGSAGG [r7_303_TrMRF]	0.237 ± 0.046	-0.617 ± 0.11	-0.0768 ± 0.051
SAGGKILIYPGSIEEAIEALKANPNTTVLVISPDGTLIEITVEELGPGPFKIDIKVIPLLPPLKPDEASAGG [r13_56_TrMRF]	1.6 ± 0.043	2.212 ± 0.021	1.97 ± 0.069
SAGGSAGGWIEIDPETGTIEIWMPPNDIEPLVDEIAEELGWKVKVKVEPNPEGWVRHTITIPPKSAGGSAGG [r6_419_TrROS]	-0.109 ± 0.087	0.281 ± 0.35	0.39 ± 0.23
SAGGPGAEIWFIKIPIEIEMKMKRKRENDPDGNPRPEWEMEMKIEIPIEIYPIRVRLDPDGKIKSIEFSAGG [r13_148_TrROS]	2.77 ± 0.15	4.3 ± 0.11	3.67 ± 0.23
SAPPYYIVIKFKMELPPPTPEDAKEYDPDGEVRRTTVEMTFVIPIPPEDLEDLKDFMQSLGIEEIEIFKSAG [r14_509_TrROS]	2.05 ± 0.087	2.75 ± 0.032	2.56 ± 0.15
SMEEEEEEPEPAPVVVITVEPGETVEQVRAAAREAAEKGMRIVITGLSEEEAKAIAEELGLDVEIEVVEPSA [r9_1207_TrROS_Hall]	3.01 ± 0.33	1.47 ± 0.16	2.69 ± 0.78

Sequence	folding stability dG unfold [1] [kcal/mol]	folding stability dG unfold [2] [kcal/mol]	folding stability dG unfold [3] [kcal/mol]
SAGGSMEIVKKETFTLEDGRKIEVVYDKETNKYVVKIYNKETGEEVEITVKSKEEAEEALKKLLEESAGGSA [r2_70_TrROS_Hall]	1.88 ± 0.13	3.76 ± 0.072	3.43 ± 0.37
SAGGSAMTKEEAKEYAEKRVKEEHPGWTVLGVEVTELPGKEVLTKVTVKPPENPDKTLEFEFKFPLSAGGSA [r15_627_JUSTAS]	2.34 ± 0.1	2.61 ± 0.035	2.54 ± 0.072
SAGMVVKFVSPSKKYVAVVYFSPDGKYRTALLYDASGELVSVIPSSVPVEELLEAFPDATVEVYPLDPPSAG [r5_314_TrMRF]	1.95 ± 0.041	2.59 ± 0.056	2.34 ± 0.1
MRIEIRVEKVEDGFYKVTIRLEETGETLELVVPKSLEEAKAAAEELLRELFPDVKVTEIRVERVPLPEEDLS [r1_80_TrROS_Hall]	3.03 ± 0.077	2.77 ± 0.063	2.9 ± 0.07
SAGGSAGGSAGGSPVRVKLKFKKKFTVLLPLTDEDDEILDVEKEYTVEITLEVTLPPDLSAGGSAGGSAGGS [r4_326_TrMRF]	3.26 ± 0.15	4.34 ± 0.2	4.01 ± 0.48
SAGGMPLEDMSLEELKARLEEALEELRAKLPPGEKKTLTLTVTLTVVDKETGETRTVTLTVTLTLPAPSAGG [r13_385_TrROS_Hall]	3.43 ± 0.064	4.38 ± 0.052	4.16 ± 0.076
SAMKTIEIEIELDELKNLTPEELEEKAKELAEELAKKLAEEKGLEVVSVKVEVVEKDGKLVVKVTVEVKSAG [r14_310_TrROS_Hall]	3.59 ± 0.24	2.83 ± 0.26	3.66 ± 0.71
SAGGSAGGSAGSSILSVVEEDPETGLRVVLSPVSDVPVRIVTKRIPEKEEIKVLEVERLPSAGGSAGGSAGG [r11_1066_JUSTAS]	-0.603 ± 0.38	-0.758 ± 0.37	-0.746 ± 0.43
SAGGSAGGSAGEFEILSIETEPPNGRVEIAIRFDDWVVVINFDNPNEPELYPVRPDDGIFSAGGSAGGSAGG [r17_145_TrROS]	2.54 ± 0.19	2.24 ± 0.12	2.3 ± 0.17
SAGMFVKIKFKTADKTVEELVKKIKEETGIPENAKITVIAEKSEDEGFVVIIEFDEEEVRDKIKEIVGSAGG [r19_215_TrMRF]	1.52 ± 0.026	1.35 ± 0.062	1.45 ± 0.087
SAGGEPMKIRIEIYRMKRKKDPKDGKEKWDMRPVPEYEIPFPPGETLLDILDKLPLPPGYMIKRISIESAGG [r13_716_TrROS]	2.28 ± 0.097	2.07 ± 0.12	2.13 ± 0.32
SAGGSAGGSAGGSRMRLEITVRDENGLLVRLEVEFEEKDGELEMKVRAEVFPLPEEEEESAGGSAGGSAGGS [r4_168_TrROS_Hall]	0.939 ± 0.04	2.71 ± 0.059	2.44 ± 0.1
SAGGSAGGSAGKKITIELPEGVKVYKLPNENDYIIVEDEKTKEKYIFKIKDGKVELIEKLSAGGSAGGSAGG [r11_1036_TrROS_Hall]	1.01 ± 0.054	1.86 ± 0.15	1.47 ± 0.14
SAGGMIVANVNPETDKVTLLITRPVVLYDEETGELREEEVTLVITASLEELEKLEEESGLPLLIIPSSAGGS [r8_337_TrMRF]	1.63 ± 0.1	2.16 ± 0.071	1.92 ± 0.15
SAGGMVTTESTKPYLLPNGTKATLTTTTTLYPDGTVVSPTTFTLTFPDGSSTTTTTTTVTTLASGALSAGGS [r16_505_JUSTAS]	0.836 ± 0.048	0.563 ± 0.089	0.727 ± 0.065
